Measurements: PMC6839023, “Structure of the UspA1 protein fragment from Moraxella catarrhalis responsible for C3d binding” (Journal of Structural Biology, 2019)

Biological target: the molecule itself
Experiment: crystal structure; UspA1 299-452 (2.4 mg/ml) mixed 1:3 with C3d (10.7 mg/ml); 1,6-hexanediol, 0.1 M Tris-HCl pH 8.5, 20 mM MgCl2; 2.5 Å; the crystals held only UspA1 299-452

B1: UspA1^299–452 (ubiquitous surface protein A1 fragment, residues 299–452) (domain or fragment)
chain: not shown
modifications: fluorescently labelled with the Monolith NT His-Tag Labelling Kit RED-tris-NTA (thermophoresis only)
notes: UspA1 of Moraxella catarrhalis strain ATCC 25238 (BC5), GenBank AAD43465, residues 299-452: part of the long neck (299-336) and of the stalk (337-452); Cloned NdeI/HindIII into pET22b(+); No thrombin cleavage is described; Trimer in the crystal; also called UspA1 fragment (amino acids 299–452); UspA^299–452; source: E. coli BL21(DE3), purified (NiNTA, Superdex 200)
How did the “stoichiometry N” value turn out when B1 was run?
Its value is 3.
